Data: the supplement of paper PMC10126150
± gives the standard deviation of the averaged measurements.

test system: ATP; test: switch fluorescence ratio, 500 uM ATP over buffer (Cy3 cluster intensity, sum of 5 cycles each) (fold (ratio)); higher = stronger signal-on switching upon ATP binding; sequences stand for … in TCGTCGGCAGCGTCAGATGTGTATAAGAGACAGTTTTTTTTTTTTTTTTTTTTTTTTT…TC; settings: aptamer strand: ATP DNA aptamer (quencher-CACCTGGGGGAGTATTGCGGAGGAAGG + anchor), 100 nM annealed; ATP concentration: 500 uM
Method in brief: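 After annealing to 100 nM quencher-labelled ATP aptamer, Cy3-labelled switching-strand clusters on a modified Illumina MiSeq flow-cell were imaged in selection buffer. A second image followed after 15 min with 500 uM ATP at 22 °C, and five such buffer/ATP cycles were done, each separated by NaOH stripping and re-annealing. The fluorescence ratio, averaged per switch-domain sequence, is summed target-cycle over summed buffer-cycle Cy3 intensity per cluster, with clusters outside 100-1000 RFU excluded.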
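Note: ATP exposure 15 min at 22 °C before imaging.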

Sequence | switch fluorescence ratio
TTAGCGAGGA | 1.03 ± 0.046
TTGAGGCAGT | 1.54 ± 0.55
GCTATCATGG | 0.9727 ± 0.0076
GACATAAAAG | 1.03 ± 0.053
ATTGTCGTTC | 1.027 ± 0.0098
TGCGAGGGTT | 1.01 ± 0.093
TGGACCGGGC | 1 ± 0.025
CCTCAGACAG | 1.58 ± 0.052
TATGGGGTAG | 1 ± 0.013
GCCCACGCTG | 1.02 ± 0.011
CTTAGGAAAG | 0.98833 ± 0.00059
TTTTAACCCC | 1.26 ± 0.19
AGGGAGGTGG | 1.02 ± 0.026
AGGTAGCGGC | 0.9911 ± 0.0095
GGGGACGTTT | 1.03 ± 0.043
GGTTGAATTA | 0.979 ± 0.051
AAGCAGTTAC | 3.41 ± 0.3
CTTCTAAGTC | 1.004 ± 0.0097
TGTAGTACTT | 1.02 ± 0.016
AAAGAGGCTT | 0.983 ± 0.039
ACTGCGAATT | 1.07 ± 0.023
TTGAGGGGTA | 1.01 ± 0.021
CTAGTTTTTG | 0.997 ± 0.049

Sequence | switch fluorescence ratio
GGGTTGCTAC | 1.02 ± 0.017
CAGGATTGGG | 0.973 ± 0.043
GTGTATAGTG | 0.982 ± 0.018
AACACTGATT | 1.04 ± 0.026
AAGTGCTTTT | 1.01 ± 0.052
GCGATAAAGC | 1.03 ± 0.041
TTCCGGATGG | 1.01 ± 0.021
GGGAAATAGT | 0.9877 ± 0.0057
CAACCTGCAG | 1.06 ± 0.012
TTACGGCATG | 1.03 ± 0.014
GGTTGTGTTT | 0.991 ± 0.003
TTTGTTGTGC | 1.01 ± 0.016
TTTTGCGCGA | 1.09 ± 0.095
GGACTCGGGC | 0.985 ± 0.031
AGTGAAAATT | 1 ± 0.038
GAATAACTGG | 0.993 ± 0.084
ATTTTGCCGG | 0.965 ± 0.013
TTTATGCACT | 1.05 ± 0.051
TTAGAAGTTT | 1.01 ± 0.015
GATCTTAGGT | 0.996 ± 0.041
TTCTACCAGC | 1.01 ± 0.011
ATGTGGGAGT | 0.979 ± 0.034
CTTGCTTTTT | 0.948 ± 0.0035

Sequence | switch fluorescence ratio
GTTTCGAGGG | 0.974 ± 0.037
GAAATGGGGG | 0.991 ± 0.028
TTTCGTCATG | 1.03 ± 0.065
AAGATTTTAT | 0.977 ± 0.019
TATAGGGCGG | 1.13 ± 0.21
GAGAAAAATG | 0.9597 ± 0.0087
CTTAGTATAT | 1 ± 0.024
GCGGTTCTC | 1.03 ± 0.029
TTGGGGGGCG | 1.01 ± 0.073
ACGTTTAGAA | 1.01 ± 0.029
TTGCATGAGG | 1.01 ± 0.078
TATCCATGGG | 0.978 ± 0.03
GTGGTACGTA | 1.02 ± 0.06
TTTGGTCAAG | 1.01 ± 0.016
TATATAGAGC | 1.02 ± 0.011
CATCTGGGGG | 1.04 ± 0.054
GGGGGGGGGG | 1.02 ± 0.068
ATAGCAGGGT | 1 ± 0.012
TCATGAACAC | 1.01 ± 0.05
AGGAGTCGGT | 1.01 ± 0.012
CTTGGAGGCG | 1.01 ± 0.036
GAATGGGGTC | 0.976 ± 0.011
ATTTGTTGG | 1.029 ± 0.0076

Sequence | switch fluorescence ratio
GCGAGTACCG | 1.02 ± 0.032
TTAAGACTTC | 1.02 ± 0.041
CCACTTATGC | 1.13 ± 0.089
CCCTGTTCGC | 1.03 ± 0.041
GTATCCCGTG | 0.977 ± 0.018
AAGGGCTCAT | 0.97409 ± 0.00079
GCTACACGGC | 1.02 ± 0.033
TTATAGGGTT | 0.991 ± 0.041
TCGGGCTGTG | 1.02 ± 0.05
GCTGGTTGGG | 0.98 ± 0.014
TTTACGGTTG | 0.996 ± 0.016
TTTAGACAAT | 1.02 ± 0.022
AGGGGTTTCG | 0.994 ± 0.025
GAAATGATGG | 0.978 ± 0.0013
TGGAAGGGGT | 1.09 ± 0.14
ATATACTAGA | 1.03 ± 0.049
TGTCAGTGCG | 0.97 ± 0.042
TGGGCTACTG | 1.04 ± 0.04
TTAAGGCCAT | 1.08 ± 0.13
AAGTAGATGG | 0.991 ± 0.029
GAGACTATTT | 0.976 ± 0.056
TAAAAAATTT | 1.02 ± 0.035
GCGTTTTTTG | 0.9912 ± 0.0054

Sequence | switch fluorescence ratio
GTTGGTTGTA | 0.987 ± 0.057
AAATATGGTT | 1.02 ± 0.035
AGTTTTAGTC | 1.01 ± 0.017
ATAACAAGGG | 1.04 ± 0.089
GCATGGCACC | 1.01 ± 0.025
TAGAAACACT | 1.05 ± 0.02
CTTGTAAGGT | 0.976 ± 0.022
CGGTGGCCGT | 1.02 ± 0.019
CAAGTATGAG | 0.9829 ± 0.0065
GCATGCGCTG | 0.982 ± 0.015
CAGGGTAGTG | 1.01 ± 0.045
AATAGAGGTC | 0.988 ± 0.013
ACAGTCGTAG | 1 ± 0.015
ACAGGGGATG | 1.08 ± 0.16
GTTAGGTAGG | 0.9818 ± 0.005
TTGGGGCCCG | 1.01 ± 0.082
AATGGGTGCA | 1.03 ± 0.054
TTTAGAGTCC | 1.05 ± 0.098
ATTTGGAAGA | 1.01 ± 0.0048
ATTCGTGTAT | 0.977 ± 0.04
TTAAAAAGG | 1.02 ± 0.037
CCTGTTCGGC | 1.02 ± 0.038
TGGTGCGGGG | 0.999 ± 0.026

Sequence | switch fluorescence ratio
CGTTTAGGTA | 0.982 ± 0.048
GTGGTTGGGA | 0.992 ± 0.029
GTGATGGGGA | 0.9895 ± 0.0095
TTTGCTGGAA | 0.995 ± 0.015
CGTGGGGGTC | 1.01 ± 0.013
AGGCAACGAA | 1.04 ± 0.039
GGGTTAAAAC | 1.01 ± 0.043
TATACTGTTG | 0.976 ± 0.021
AAAGTGCTCT | 0.981 ± 0.038
TAATTGAAGA | 0.971 ± 0.012
CACGGATAGC | 1.07 ± 0.027
TTATTGAGGT | 0.981 ± 0.012
GTGTTTCCTG | 0.994 ± 0.028
TTCACGTTTT | 1.03 ± 0.087
GCATAACATT | 1.01 ± 0.014
GGTTTTCCGG | 1.01 ± 0.046
CGGGATGTCA | 0.955 ± 0.038
AATTCAATGA | 1.01 ± 0.045
GTGAGTCTAA | 0.993 ± 0.018
TTGGCTTTGG | 0.967 ± 0.0056
GTTTGATCGG | 0.97 ± 0.013
CGGGTTTAAG | 0.9933 ± 0.0026
ACGTCGCGGG | 0.9877 ± 0.0019

Sequence | switch fluorescence ratio
AACGGTCTGA | 1.009 ± 0.0024
ATATACATGG | 1.01 ± 0.035
TTTGACGGGC | 1.05 ± 0.032
ACCAGTTATT | 1.08 ± 0.14
CGTCGTAGGG | 0.985 ± 0.03
TCGGATCCAA | 1.048 ± 0.0022
AACTAGATCG | 1.02 ± 0.028
TTTACGTGTT | 0.991 ± 0.012
TGGGAAGAGC | 1.025 ± 0.0038
CCCGGGTTGT | 1.16 ± 0.12
ATAACTGCGG | 1.02 ± 0.012
ATCGTGATCC | 1.016 ± 0.0094
GAAGTCGGAT | 0.979 ± 0.019
AAGCTTTTAT | 0.993 ± 0.06
AAGGACCTCC | 1.232 ± 0.0034
ATTGTAGACC | 1.0225 ± 0.00081
TCGGGTAAGT | 1.01 ± 0.077
CTCGGCTTGT | 1.05 ± 0.044
GATTGAAAGA | 0.986 ± 0.026
